Columns and labels:
[1] = target: T1, OfERF61 (Osmanthus fragrans, UniProt A0A5P8PES4 1-303); experiment: EMSA; 0, 2, 4, 8 ug ERF61; complex increases with protein; LightShift Chemiluminescent EMSA Kit (Thermo Fisher), manufacturer's instructions; buffer, salt, pH and temperature not stated; conditions: protein: recombinant; tags: pET-30a vector tags (not given); label: 3' biotin (sense strand); blunt
[2] = target: T1, OfERF61; experiment: competition; labeled OC1 probe; signal reduced at 20-fold, not detected at 200-fold excess; LightShift Chemiluminescent EMSA Kit (Thermo Fisher), manufacturer's instructions; buffer, salt, pH and temperature not stated; conditions: protein: recombinant; tags: pET-30a vector tags (not given); label: none; blunt

T1 sequence (A0A5P8PES4 entry or part of it): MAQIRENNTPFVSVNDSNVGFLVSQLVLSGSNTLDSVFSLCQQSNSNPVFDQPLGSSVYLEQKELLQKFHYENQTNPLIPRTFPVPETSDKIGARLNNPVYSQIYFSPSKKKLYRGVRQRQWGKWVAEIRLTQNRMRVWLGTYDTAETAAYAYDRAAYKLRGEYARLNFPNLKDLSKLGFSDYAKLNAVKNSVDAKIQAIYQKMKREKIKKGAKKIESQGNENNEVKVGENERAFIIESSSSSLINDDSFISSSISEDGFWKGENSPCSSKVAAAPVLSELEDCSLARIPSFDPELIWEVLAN

B1: OC1 probe (OfCCD4 promoter, CAACA element) (dsDNA)
DNA 1: AAAGAAAAAAGGACAACAACAGTGGATAATTTGA
DNA 2: TCAAATTATCCACTGTTGTTGTCCTTTTTTCTTT
binding result [1]: binds

B2: OC1 unlabeled competitor (dsDNA)
DNA 1: B1 DNA 1
DNA 2: B1 DNA 2
binding result [2]: binds
